# Where no end group is shown, it is not given here.
# Columns and labels:
# Test in all cases: cell-based or functional assay
# ADRA2A = molecular target: T1, ADRA2A (UniProt P08913 1-465)
# T1 sequence (looked up): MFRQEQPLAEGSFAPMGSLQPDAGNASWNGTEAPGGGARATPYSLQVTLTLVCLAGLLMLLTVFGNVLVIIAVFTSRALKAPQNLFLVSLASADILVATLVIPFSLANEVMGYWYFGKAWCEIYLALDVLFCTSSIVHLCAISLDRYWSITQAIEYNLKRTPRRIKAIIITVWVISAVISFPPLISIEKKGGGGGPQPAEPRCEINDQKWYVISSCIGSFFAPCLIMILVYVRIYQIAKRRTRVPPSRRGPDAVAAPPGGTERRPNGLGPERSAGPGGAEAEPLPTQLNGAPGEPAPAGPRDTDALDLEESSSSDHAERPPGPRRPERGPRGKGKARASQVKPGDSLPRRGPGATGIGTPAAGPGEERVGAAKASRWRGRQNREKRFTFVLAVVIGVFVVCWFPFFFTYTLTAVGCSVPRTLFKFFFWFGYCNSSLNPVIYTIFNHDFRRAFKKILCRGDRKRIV
# C5aR1 = molecular target: T2, C5aR1 (UniProt P21730 1-350)
# T2 sequence (looked up): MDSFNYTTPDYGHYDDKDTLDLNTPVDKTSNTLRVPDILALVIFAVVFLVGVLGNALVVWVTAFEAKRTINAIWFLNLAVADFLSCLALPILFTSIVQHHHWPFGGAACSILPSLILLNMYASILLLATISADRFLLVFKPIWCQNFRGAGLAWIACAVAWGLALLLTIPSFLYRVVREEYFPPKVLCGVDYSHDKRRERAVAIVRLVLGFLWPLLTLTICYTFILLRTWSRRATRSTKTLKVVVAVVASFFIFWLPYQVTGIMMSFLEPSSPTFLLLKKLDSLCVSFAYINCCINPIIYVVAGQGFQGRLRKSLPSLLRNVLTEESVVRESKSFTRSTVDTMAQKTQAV
# OXTR = molecular target: T3, OXTR (UniProt P30559 1-389)
# T3 sequence (looked up): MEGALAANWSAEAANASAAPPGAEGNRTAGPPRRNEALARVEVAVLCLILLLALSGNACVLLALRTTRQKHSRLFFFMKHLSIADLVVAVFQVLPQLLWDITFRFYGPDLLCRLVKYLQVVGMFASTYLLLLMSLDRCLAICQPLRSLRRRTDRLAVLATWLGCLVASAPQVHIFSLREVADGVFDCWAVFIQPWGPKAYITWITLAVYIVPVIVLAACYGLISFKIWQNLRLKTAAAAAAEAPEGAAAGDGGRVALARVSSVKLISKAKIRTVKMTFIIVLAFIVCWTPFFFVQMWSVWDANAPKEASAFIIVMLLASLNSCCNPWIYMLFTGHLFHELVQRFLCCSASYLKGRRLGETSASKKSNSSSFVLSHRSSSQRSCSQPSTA
# GALR1 = molecular target: T4, GALR1 (UniProt P47211 1-349)
# T4 sequence (looked up): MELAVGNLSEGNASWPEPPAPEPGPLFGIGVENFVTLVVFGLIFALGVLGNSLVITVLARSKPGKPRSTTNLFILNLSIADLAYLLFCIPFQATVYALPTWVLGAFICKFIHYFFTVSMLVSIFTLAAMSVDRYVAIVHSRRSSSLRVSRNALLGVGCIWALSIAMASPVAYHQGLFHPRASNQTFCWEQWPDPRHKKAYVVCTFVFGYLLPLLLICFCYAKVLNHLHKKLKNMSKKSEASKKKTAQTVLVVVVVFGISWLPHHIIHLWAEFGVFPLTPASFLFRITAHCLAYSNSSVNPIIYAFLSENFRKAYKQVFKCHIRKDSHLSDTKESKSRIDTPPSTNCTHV
# DRD5 = DRD5 (UniProt P21918 1-477)
# CXCR6 = CXCR6 (UniProt O00574 1-342)
# GCGR = GCGR (UniProt P47871 26-477)
# CHRM4 = molecular target: T5, CHRM4 (UniProt P08173 1-479)
# T5 sequence (looked up): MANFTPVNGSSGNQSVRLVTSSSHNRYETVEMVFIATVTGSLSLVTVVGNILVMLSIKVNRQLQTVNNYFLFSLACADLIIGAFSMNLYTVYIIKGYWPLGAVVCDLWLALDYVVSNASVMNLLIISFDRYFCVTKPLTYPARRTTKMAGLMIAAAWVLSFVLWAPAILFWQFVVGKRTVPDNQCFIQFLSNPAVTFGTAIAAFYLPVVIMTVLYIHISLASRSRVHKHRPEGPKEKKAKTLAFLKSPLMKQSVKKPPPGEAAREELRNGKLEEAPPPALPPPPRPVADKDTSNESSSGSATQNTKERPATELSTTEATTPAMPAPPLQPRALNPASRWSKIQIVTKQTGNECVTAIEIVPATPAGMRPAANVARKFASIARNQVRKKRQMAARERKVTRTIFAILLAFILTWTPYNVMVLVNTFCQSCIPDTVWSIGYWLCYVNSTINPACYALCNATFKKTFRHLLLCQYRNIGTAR
# EDNRA = molecular target: T6, EDNRA (UniProt P25101 21-427)
# T6 sequence (looked up): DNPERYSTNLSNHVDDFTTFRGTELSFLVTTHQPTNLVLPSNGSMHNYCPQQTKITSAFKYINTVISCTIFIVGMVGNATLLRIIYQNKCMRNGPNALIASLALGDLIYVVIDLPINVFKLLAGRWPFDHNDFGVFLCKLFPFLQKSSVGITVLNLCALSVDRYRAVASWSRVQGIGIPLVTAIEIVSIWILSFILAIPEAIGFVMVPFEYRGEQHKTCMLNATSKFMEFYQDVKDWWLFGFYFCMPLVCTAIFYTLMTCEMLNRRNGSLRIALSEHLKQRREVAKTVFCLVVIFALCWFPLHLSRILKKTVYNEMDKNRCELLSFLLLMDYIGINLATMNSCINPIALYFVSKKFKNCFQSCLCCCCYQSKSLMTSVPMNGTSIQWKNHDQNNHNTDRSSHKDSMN
# Chain of CXCR6 (O00574 whole entry): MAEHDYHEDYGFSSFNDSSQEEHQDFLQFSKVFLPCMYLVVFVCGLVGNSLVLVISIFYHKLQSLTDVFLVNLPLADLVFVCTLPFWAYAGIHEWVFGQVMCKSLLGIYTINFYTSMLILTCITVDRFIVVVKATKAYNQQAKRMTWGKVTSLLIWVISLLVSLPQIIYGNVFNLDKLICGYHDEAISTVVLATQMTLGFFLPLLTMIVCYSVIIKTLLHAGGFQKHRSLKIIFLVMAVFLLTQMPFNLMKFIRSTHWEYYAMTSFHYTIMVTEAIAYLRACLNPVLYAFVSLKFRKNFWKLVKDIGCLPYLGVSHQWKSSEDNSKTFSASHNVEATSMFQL
# Chain of DRD5 (P21918 whole entry): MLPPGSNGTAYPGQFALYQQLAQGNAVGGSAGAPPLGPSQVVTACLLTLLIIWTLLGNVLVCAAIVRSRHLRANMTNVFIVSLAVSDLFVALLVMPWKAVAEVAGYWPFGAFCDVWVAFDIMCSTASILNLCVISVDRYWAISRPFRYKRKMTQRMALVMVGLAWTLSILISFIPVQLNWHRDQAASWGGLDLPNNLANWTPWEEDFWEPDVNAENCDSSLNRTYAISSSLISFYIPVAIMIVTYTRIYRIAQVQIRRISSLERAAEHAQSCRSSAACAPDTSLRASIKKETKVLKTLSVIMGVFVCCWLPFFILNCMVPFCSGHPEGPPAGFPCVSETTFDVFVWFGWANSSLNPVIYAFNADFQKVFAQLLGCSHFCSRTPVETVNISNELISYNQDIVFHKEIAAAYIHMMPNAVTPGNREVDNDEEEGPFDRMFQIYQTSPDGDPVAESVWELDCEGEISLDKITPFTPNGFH
binder,measurement,setting,value
"QATVGDVNTDRPGLLDLK (also: synthesised on Rink amide resin, C-terminal amide not given here outright) [octadecaneuropeptide (ODN)]","% Activity, arrestin, antagonist mode, 2.5 uM",ADRA2A,-27.2%
same,"% Activity, arrestin, antagonist mode, 2.5 uM",C5aR1,-14.2%
same,"% Activity, arrestin, antagonist mode, 2.5 uM",OXTR,1.3%
same,"% Activity, arrestin, antagonist mode, 2.5 uM",GALR1,-22.5%
same,"% Activity, arrestin, antagonist mode, 2.5 uM",DRD5,4.2%
same,"% Activity, arrestin, antagonist mode, 2.5 uM",CXCR6,-1.3%
same,"% Activity, arrestin, antagonist mode, 2.5 uM",GCGR,-17.2%
same,"% Activity, arrestin, antagonist mode, 2.5 uM",CHRM4,5.8%
same,"% Activity, arrestin, antagonist mode, 2.5 uM",EDNRA,2.5%
